Substitutions are numbered along the chain they refer to. Values belong to the binder of their own block, whether it stands above or below them.
Legend:
[1] = target: T1, TFECDHis (extracellular domain of tissue factor, amino acid 1-251, with C-terminal His tag) (human, UniProt P13726 33-251); experiment: SPR BIAcore 3000, HuMab immobilized, TFECDHis analyte
T1 construct: range 1-251; The stated range 1-251 starts at residue 1 of NP-001984; also called extracellular domain of TF
Method: (§1) Antibody binding to TF was analyzed by surface plasmon resonance in a BIAcore 3000 (GE Healthcare). TFECDHis was used for the analysis. HuMab antibodies (500 resonance units) were immobilized on the CM-5 sensor chip according to the procedure recommended by the manufacturer. Briefly, after surface activation by EDC and NHS HuMab antibody was injected over the activated CM-5 surface in 10 mM sodium-acetate, pH ranging from 4.0 to 5.5 at 5 μl/min. followed by 1 M Ethanolamine for deactivation. Concentration series of TFECDHis in HBS-EP buffer were injected over the immobilized antibodies at a flow rate of 30 μl/min for 180 sec. Regeneration of the HuMab surface was performed by injection of 10 mM Glycine-HCl pH 2.0 or 10 mM sodium acetate pH 3.0. Kinetic analysis was performed using double reference subtraction and model 1:1 (langmuir) binding analysis.

[2] = target: T1, TFECDHis (extracellular domain of …); experiment: competition ELISA, inhibition of FVIIa (100 nM) binding to coated TFECDHis
Method: ELISA plates were coated overnight with TFECDHis (0.5 μg/mL, 100 μL per well). Plates were emptied, blocked with PBS containing 2% (v/v) chicken serum (1 hour, RT), and emptied again. […] Plates were washed and incubated with swine-anti-rabbit IgG-HRP antibody (1:2,500; DAKO). After washing, the immune complexes were visualized using ABTS as a substrate.

[3] = target: T2, human tissue factor (TF), membrane-bound on cells (human, UniProt P13726 33-295); experiment: FACS, Bx-PC3 cells, 30 µg/mL
T2 construct: whole, on cells; also called cellular TF
In short: (§2)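 First, cells suspended at 2×10⁶ cells/ml were exposed to serially diluted antibody for 30 minutes on ice. After three washes, PE-conjugated goat anti-human IgGFc (1:100) was applied for 30 minutes on ice in the dark, then binding was measured by flow cytometry.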

[4] = target: T2, human tissue factor (TF), …; experiment: FACS, MDA-MB-231 cells
In short: as §2

[5] = target: T2, human tissue factor (TF), …; experiment: FACS, MDA-MB-231 cells, 30 µg/mL
In short: as §2

[6] = target: T2, human tissue factor (TF), …; experiment: cell-based or functional assay
[7] = target: T3, murine tissue factor (TF) on transfected HEK293F cells (murine, UniProt P20352 29-294); experiment: FACS on transfected HEK293F cells, 30 µg/mL antibody [panel I]
T3 construct: whole, on cells; also called murine TF; TFmm
T3 sequence (looked up): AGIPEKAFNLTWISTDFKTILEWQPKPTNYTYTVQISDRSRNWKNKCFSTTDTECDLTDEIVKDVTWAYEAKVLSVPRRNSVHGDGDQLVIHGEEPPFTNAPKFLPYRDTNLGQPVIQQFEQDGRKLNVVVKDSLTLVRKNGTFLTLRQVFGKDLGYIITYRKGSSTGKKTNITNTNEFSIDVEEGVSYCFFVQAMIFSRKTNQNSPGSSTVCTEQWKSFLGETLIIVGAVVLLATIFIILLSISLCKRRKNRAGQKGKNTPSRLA

[8] = target: T2, human tissue factor (TF), …; experiment: FACS, Bx-PC3 cells
In short: as §2

[9] = target: T1, TFECDHis (extracellular domain of …); experiment: ELISA, coated TFECDHis, mean of 3
In short: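 Plates coated overnight at +4° C with 0.5 μg/mL TFECDHis in PBS pH 7.4, blocked with 2% chicken serum. Serially diluted HuMabs bound 1 h at RT with shaking, detected with HRP anti-human IgG. Binding curves fitted by sigmoidal dose-response with variable slope; anti-KLH HuMab served as negative control.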

[10] = target: T1, TFECDHis (extracellular domain of …); experiment: SPR BIAcore 3000, HuMab immobilized, TFECDHis analyte; footnote: n.a. not assessable = >10^-3 sec^-1
Method: as §1

[11] = target: T2, human tissue factor (TF), …; experiment: FACS, A431 cells, 30 µg/mL
In short: as §2

[12] = target: T2, human tissue factor (TF), …; experiment: FACS, TF transfected CHO cells (S1015-TF)
In short: as §2

[13] = target: T2, human tissue factor (TF), …; experiment: FACS, TF transfected CHO cells (S1015-TF), 7.5 µg/mL
In short: as §2

[14] = target: T2, human tissue factor (TF), …; experiment: FACS, A431 cells
In short: as §2

[15] = target: T3, murine tissue factor (TF) on …; experiment: FACS on transfected HEK293F cells, 30 µg/mL antibody [panel J]
TF (Innovin) = TF (Innovin) (UniProt P13726 33-295, limits assumed); experiment: cell-based or functional assay

- kon [1]: 591000 M⁻¹ s⁻¹
- max inhibition [2]: 35%
- Max MFI [3]: 1030
- EC50 [4]: 8.28 nM
- Max MFI [5]: 1110
- max inhibition of FVIIa induced IL-8 release (MDA-MB-231) [6]: 4.3%
- binding result [7]: no binding (tested: 30 µg/mL)
- EC50 [8]: 7.19 nM
- EC50 [9]: 0.09 nM
- koff [10]: > 0.001 s⁻¹
B1: anti-TF HuMab 087-Lg6 (antibody, V domains shown)
VH: EVQLVQSGAEVKKPGESLKISCKGSGYSFTSCWIGWVRQMPGKGLEWMGIIYPGDSDTRYSPSFQGQVTISADKSISTAYLQWSSLKASDTAMYYCARHKLGMDHDAFDIWGQGTMVTVSS
VL: DIQMTQSPSSLSASVGDRVTITCRASQGISSWLAWYQQKPEKAPKSLIYAASSLQSGVPSRFSGSGSGTDFTLTISSLQPEDFATYYCQQYNSYPPTFGQGTTVEVK
notes: Human monoclonal antibody from HuMab mice

- Max MFI [11]: 3140
- Kd [1]: 14.1 nM
- max inhibition [2]: 90%
- Max MFI [3]: 1260
- EC50 [4]: 0.53 nM
- Max MFI [5]: 2290
- EC50 [12]: 1.32 nM
- Max MFI [13]: 5410
- EC50 [8]: 0.84 nM
- EC50 [9]: 0.18 nM
- EC50 [14]: 0.83 nM
- binding result [15]: no binding (tested: 30 µg/mL)
- IC50, inhibition of blood coagulation (TF induced clotting time) (TF (Innovin)): 0.2 nM
B2: anti-TF HuMab 092-A09 (antibody, V domains shown)
VH: EVQLLESGGGLVQPGGSLRLSCAASGFTFNNYAMSWVRQAPGKGLEWVSSISGSGGRTYYADSVKGRFTISRDNSKNTLFLQMNSLRAEDTAVYYCAKTPWGYYFDYWGQGTLVTVSS
VL: B1 VL with W32R, P96Y, T103K, V104L, V106I
notes: as for B1

Reference: US20110300156A1 (Genmab, published 2011)
